These results are taken from patent publication CN106749644A.

The target in test [1] is HCV-E2蛋白 (Hepatitis C virus (HCV)). In words: SPR, BiaCore X-100; antibody captured by goat anti-human IgG on CM5 chip, HCV-E2 as analyte. (In general: In SPR one partner is held on a chip, and binding of the other changes the refractive index at the surface.)
Test [2] has as its target 不同的HCV包膜糖蛋白 (on HCV pseudovirus, HCVpp). In words: cell-based or functional assay.

Usually Kd stands for the concentration at which binding is half-saturated. A lower Kd goes with tighter binding. Usually koff stands for a measure of how fast the partners let go of each other. High values mean fast dissociation, low ones slow dissociation. By kon is commonly meant the rate constant with which the complex forms. High values mean fast association, low ones slow association.

B1: 全人源抗HCV的单克隆中和抗体TRN1001 (antibody, V domains shown)
VH: QVQLVQSGAEVKKPGSSVKVSCKVSGDRINNYAINWVRQAPGQGLEWMGRIIGIVGLANYAQKFQGRVTMTADKSTSTGYMELSTLKSDDTAMYYCATDNRILAAAPSHYSYSMDLWGPGTTVTVSS
VL: QSALTQPASVSGSPGQSITISCTGTSSDVGGDNYVSWYQQYTGKAPKVMIYDVSKRPSGVSNRFSGSKSGNTASLTISGLQAEDEADYYCCSYTSDNSYVFGSGTKVIVL
As for B1, in test [1], the Kd turned out to be 20.3 nM, the koff was found to be 0.00011 s⁻¹ and the kon was 5440 M⁻¹ s⁻¹. In addition, the Luciferase活性 (荧光值), HCVpp infection of Huh7 cells in test [2] is 100%.
